Literature values, collected in publication PMC11724285.

Test system: NF-κB (subunit not stated)

In the case of “GAUACUUGAAACUGUAAGGUUGGCGUAUA [NF-κB RNA aptamer (29 nt)]”, the Kd is listed as 5 nM.
